Results: the RNAGym collection of RNA variant scans (doi:10.1073/pnas.2313332121)

B1: TPR t1 (parent)
chain: GACCAAUCUGCCCUCAGAGCUCGAGAACAUCUUCGGAUGCAGAGGAGGCAGGCUUCGGUGGCGCGAUAGCGCCAACGUCCUCAACCUCCAAUGCAUCCCACCACAUGAUGAUGCCUGAAGAGCCUUGGUUUUUUG

Variants of: B1
Assay: polymerase ribozyme fitness, log enrichment relative to wild type (log ratio); higher = more active; in vitro selection for triplet polymerase activity
Outline: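 Fitness measures genotype enrichment against wild-type enrichment on a logarithmic scale, with inverse-variance-weighted averaging of replicates. The logarithm is base 2, and genotypes were kept only with ≥10 input reads and ≥1 read per output in Illumina sequencing. The sequenced libraries came from one triplicate in vitro selection round, including frozen incubation at −7 °C, of PCR-built, transcribed mutant libraries of each subunit of a heterodimeric triplet polymerase ribozyme.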

Compared with GACCAAUCUGCCCUCAGAGCUCGAGAACAUCUUCGGAUGCAGAGGAGGCAGGCUUCGGUGGCGCGAUAGCGCCAACGUCCUCAACCUCCAAUGCAUCCCACCACAUGAUGAUGCCUGAAGAGCCUUGGCUAUUUG, GACCAAUCUGCCCUCAGAGCUCGAGAACAUCUUCGGAUGCAGAGGAGCUAGGCUUCGGUGGCGCGAUAGCGCCAACGUCCUCAACCUCCAAUGCAUCCCACCACAUGAUGUUGCCUGAAGAGCCUUGGUUUUAUG is lower in “polymerase ribozyme fitness (log ratio)” value: -0.49 for the first, -4.49 for the second.

Going from GACCAAUCUGCCCUCAGAGCUCGAGAACAUCUUCGGAUGCAGAGGAGGCAGGCUUCGGUGGCGCGAUAGCGCCAACGUCCUCAACCUCCAAUGCAUCCCACCACAUGAUGAUGCCGGAAGAGCCUUGGUCUUUUG to GACCAAUGUGCCCUCAGAGCUCGAGAACAUCUUCGGAUGCAGAGGAGGCAGGCUUCGGUGGCGCGAUAGCGCCAACGUCCUCAACCUCCAAUGCAUUCCACCACAUGAGGAUGCCUGAAGAGUCUUGGUUUUUUG, the “polymerase ribozyme fitness (log ratio)” value falls from -2.14 to -4.98.

First: GACCAAUCUGCCCUCAGAGCUCGAGAACAUCUUCGGAUGCAGAGGAGGCAGGCUUCUGUGGCGCGAUAGCGCCAACGUCCUAAACCUCCAAUGCAUCCCACCACAUGAUGAUGCCUGAAGAGUCUUGGUUUUUUG
Second: GACCAAUCUGCCCUAAGAGCUCGAGAACAUCUUCGGAUGCAGAGGAGGCAGGCUUCGGUGGCGCGAUAGCGCCAACGUCCUCAACCGCCACUGCAUCCCACCACAUGAUGACGCCUGAAGAGCCUUGCUUUUUUU
The “polymerase ribozyme fitness (log ratio)” value of the first is higher: 0.32 for the first, -5.85 for the second.

First: GACCAAUCUGCCAUCAGAGCUCGAGAACAUCUUCGGAUGAAGAGGAGGCAGGCUUCGGUGGCGCGAUAGCGCCAACGUUCUCAACCUCCAAUGCAUCCCACCACAUGAUGAUGCCUGAAGAGCCUUGGUUUUUUG
Second: GACCAAUCUGCCCUCAGAGCUCGAGAACAUCUUCGGAUGCAGAGGAGGCAGGCCUCGAUGGCGCGAUAGCGCCAACGUCCUCAACCUCCAACGCAUCCCACCACAUGAUGAUGCCUGAAGAGCCUUGGUUUUUUG
The “polymerase ribozyme fitness (log ratio)” value of the first is lower: -2.13 for the first, -0.614 for the second.

Compared with GACCAAUCUGCCCUCAGAGCUCGAGAACAUCUUCGGAUGCACAGGAGGCAGGCUUCGGUGGCGCGAUAGCGCCAACGUCCUCAACCUCCAGUGCAUCCCACCACAUGAUGAUUCCUGAAGAGCCUUGGUUUUUUG, GACCAAUCUGCCCUCAGAGCUCGAGAACAUCUUCGGAUGCAGAGGUGGCAGGCUUUGGUGGCGCGAUAGCGCCAACGUCCUCAACCUCCAAUGCAUCCCAUCACAUGAUGAUGCCUGAAGAGCCUUGGUUUUUUG is higher in “polymerase ribozyme fitness (log ratio)” value: -3.17 for the first, -1.33 for the second.

GACCAAUCUGCCCUCAGAGCUCGAGAACAUCUUCGGAUGCAGAGGAGGCAGGCUUCGGUGGCGCGAUAGCGCCAAAGUCCUCAAGCUCCAAUGCAUCCCACCACAUGAUGAUGCCUGAAGAGCCUUGGUUUUUUG and GACCAAUCUGUCCUCAGAGCUCGAGAACAUCUUCGGAUGCAGAGGAGGCAGGCUUCGGUGCCGCGAUAGCGCCAACGUCCUCAACCUCCAAUGCAUCCCACCACAUGAUGAUGCCUGAAUAUCCUUGGUUUUUUG are within 0.2 log units of each other in “polymerase ribozyme fitness (log ratio)” value: -1.03 for the first, -1.06 for the second.

First: GACCAAUCUGCCCUAAGAGCUCGAGAACAUCUUCGGAUGCAGAGGAGGAAGGCUGCGGUGGCGCGAUAGCGCCCACGUCCGCAACCUCCGAUGCAUCCCACCACAUGAUGAUGCCUUAAGAGCCUUGGUUUUUUG
Second: GACCAAUCUGCCCUCAGAGCUCGAGAACAUCUUCGGAUGCAGAGGAGGCACGCUUCGGUGGCGCGAUAGCGCCAACGUCCUCAACCUCCAAUGCAUCCCAUCACAUGAUGAUGCCUGAAGAGCCUUGGUUUUUUG
The “polymerase ribozyme fitness (log ratio)” value of the first is higher: -3.52 for the first, -3.94 for the second.

Going from GACCAAUCUGUCCUCAGAGCUCGAGAACAUCUUCGGAUGCAGAGGAGGCAGGCGUCGGUGGCGCGAUAGCGCUAACGUCCUCAACCUCCAAUGCAUUCCACCACAUGAUGAUGCCUGAACAGCCUUGGUUUUUUG to GACCAAUCUGCCCUCAGAGCUCGAGAAUAUCUUCGGAUGCAGGGGAGGCAGGCUUCGGUGGCGCGAUAGCGGCAACGUCCUCAACCUCCAAUGCAUCCCACCACAUGAUGAGGCCUGAAGAGCCUUGGUUUUUUG, the “polymerase ribozyme fitness (log ratio)” value falls from 0.506 to -5.26.

Going from GACCAAUCUGCCCUCAGACCUCGAGAACAUCUUCGGGUGCAGAGGAGGCAGGCUUCGGUGGCGCGAUAUCGCCAACGUCCUCAACCUCCAAUGCAUCCCACCACAUGAUGAUGCCUGAAGAGCGUUGGUUUUUUG to GACCAAUCUGCCCUCAGAGCUCGAGAACAUCUUCGGAUGCAGAGGAGGCAGGCUUCGGUGGAGCGAUAGCGCCAACGUCCUCAACCUCCAAUGCAUCCCACCACAUGAUGAUGUCUGAAGAGCCUUGGUUUUUUG, the “polymerase ribozyme fitness (log ratio)” value falls from 0.721 to -2.2.

Compared with GACCAAUCUGCACUCAGAUCUCGAGAACAUCUUCGGAUGGAGAGGAGGCAGGCUUCGGUGGCGCGAUAGCGCCAACGUCCUCAACCUCUAAUGCAUCCCACAACAUGAUGACGACUGAAGAGCCUUGGUUUUUUG, GACCAAUCUGCCUUCAGAGCUCGAGAACAUCUUCGGAUGCGGAGGAGGCAGGCUUCGGUAGCGCGAUAGCGCCAACGUCCUCAACCUCCAAUGUAUCCCACCACAUGAUGAUGCUUGAAGAGCCUUGGUUUUUUG is higher in “polymerase ribozyme fitness (log ratio)” value: -2.47 for the first, -1.95 for the second.

For GACCAAUCUGCCCUCUGAGCUCGAGAACAUCUUCGGAUGCAGAGGAGGCAGGCUUCGGUGUCGCGAUAGCGCCAACGUCCUCAACCUCCAAUGCAUCCCACCACAUGAUGAUGCCUGAAGAGCCUUGGUUUUUUU, the “polymerase ribozyme fitness (log ratio)” value was -1.98.
